Test results from IntAct's records for PubMed 25312756.

B1: Ras-related protein Rab-27A (Homo sapiens), P51159 (parent)
chain: MSDGDYDYLIKFLALGDSGVGKTSVLYQYTDGKFNSKFITTVGIDFREKRVVYRASGPDGATGRGQRIHLQLWDTAGQERFRSLTTAFFRDAMGFLLLFDLTNEQSFLNVRNWISQLQMHAYCENPDIVLCGNKSDLEDQRVVKEEEAIALAEKYGIPYFETSAANGTNISQAIEMLLDLIMKRMERCVDKSWIPEGVVRSNGHASTDQLSEEKEKGACGC
partner: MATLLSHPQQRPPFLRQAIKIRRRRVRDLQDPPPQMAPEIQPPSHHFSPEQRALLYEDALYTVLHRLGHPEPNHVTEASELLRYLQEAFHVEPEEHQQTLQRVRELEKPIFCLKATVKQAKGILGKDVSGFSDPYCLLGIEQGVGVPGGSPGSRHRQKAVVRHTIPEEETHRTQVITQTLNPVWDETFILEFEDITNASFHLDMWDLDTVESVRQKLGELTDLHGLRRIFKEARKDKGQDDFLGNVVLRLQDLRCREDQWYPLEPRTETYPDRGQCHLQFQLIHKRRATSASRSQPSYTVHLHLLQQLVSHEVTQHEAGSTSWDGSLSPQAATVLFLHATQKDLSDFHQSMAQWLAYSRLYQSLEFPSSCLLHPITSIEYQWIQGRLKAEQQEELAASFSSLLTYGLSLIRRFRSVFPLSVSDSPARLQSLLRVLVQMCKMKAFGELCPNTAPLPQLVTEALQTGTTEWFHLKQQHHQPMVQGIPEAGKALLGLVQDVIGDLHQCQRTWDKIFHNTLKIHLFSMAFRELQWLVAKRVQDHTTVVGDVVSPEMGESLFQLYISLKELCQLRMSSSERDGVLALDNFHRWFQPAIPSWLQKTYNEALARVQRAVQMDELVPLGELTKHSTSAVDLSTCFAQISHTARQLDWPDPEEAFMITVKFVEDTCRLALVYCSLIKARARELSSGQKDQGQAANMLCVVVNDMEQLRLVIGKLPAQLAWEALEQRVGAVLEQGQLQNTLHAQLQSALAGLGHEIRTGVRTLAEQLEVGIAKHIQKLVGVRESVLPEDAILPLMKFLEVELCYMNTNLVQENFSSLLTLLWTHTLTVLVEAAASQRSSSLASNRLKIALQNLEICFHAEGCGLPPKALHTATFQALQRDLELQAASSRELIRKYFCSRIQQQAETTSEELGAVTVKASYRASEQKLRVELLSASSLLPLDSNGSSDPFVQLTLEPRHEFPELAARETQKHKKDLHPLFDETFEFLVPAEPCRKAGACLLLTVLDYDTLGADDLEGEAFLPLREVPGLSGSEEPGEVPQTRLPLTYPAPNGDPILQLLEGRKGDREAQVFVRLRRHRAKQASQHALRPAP
B2: Ras-related protein Rab-27A (Homo sapiens), P51159 (parent)
chain: B1 chain
partner: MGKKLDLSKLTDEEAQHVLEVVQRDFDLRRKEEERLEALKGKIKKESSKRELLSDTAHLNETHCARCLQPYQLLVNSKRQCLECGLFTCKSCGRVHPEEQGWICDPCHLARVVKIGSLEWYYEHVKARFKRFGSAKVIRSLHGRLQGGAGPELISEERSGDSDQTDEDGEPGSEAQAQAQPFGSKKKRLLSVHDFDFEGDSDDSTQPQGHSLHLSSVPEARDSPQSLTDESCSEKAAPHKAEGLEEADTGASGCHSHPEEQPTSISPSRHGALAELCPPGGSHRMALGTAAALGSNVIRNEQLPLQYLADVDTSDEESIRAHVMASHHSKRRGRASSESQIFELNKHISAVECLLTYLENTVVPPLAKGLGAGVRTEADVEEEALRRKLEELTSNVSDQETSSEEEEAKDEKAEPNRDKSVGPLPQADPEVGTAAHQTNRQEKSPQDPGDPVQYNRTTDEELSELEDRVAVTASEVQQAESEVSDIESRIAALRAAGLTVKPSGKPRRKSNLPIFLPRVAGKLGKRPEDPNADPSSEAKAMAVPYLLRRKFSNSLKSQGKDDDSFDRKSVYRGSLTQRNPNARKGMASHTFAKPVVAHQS

Variants of: B1
Conditions: with un13d_human UNC13D

Question: A76V was tested. Which “effect of a mutation on the interaction” value did it give?
Answer: decreasing interaction strength

Question: S163R was tested. Which “effect of a mutation on the interaction” value did it give?
Answer: decreasing interaction strength

Question: Y159C was tested. Which “effect of a mutation on the interaction” value did it give?
Answer: disrupting interaction strength

Variants of: B2
Conditions: with melph_human MLPH

Question: For S163R, which “effect of a mutation on the interaction” value is on record?
Answer: decreasing interaction strength

Question: How did the “effect of a mutation on the interaction” value turn out when Y159C was run?
Answer: with no effect

Question: How did the “effect of a mutation on the interaction” value turn out when A76V was run?
Answer: with no effect
